Results: doi:10.1101/2023.09.01.555870 (bioRxiv, 2023)

Target: the molecule itself
Assay: NMR solution structure

B1: carboxy-terminal domain (CTD) fragment of λ Ea22 (102-182) (domain or fragment, bacteriophage λ)
chain: SNEVREDGNQFLVVRHPGKTPVIKHCTGDLEEFLRQLIEQDPLVTIDIITHRYYGVGGQWVQDAGEYLHMMSDAGIRIKGEIETAV
B1: binds.
